# In paper PMC8409457, “An evolution-inspired strategy to design disulfide-rich peptides tolerant to extensive sequence manipulation†” (Chemical Science, 2021):
# Bridges are numbered along the chain shown (N, C = ends). Where no end group is shown, it is not given here.
# What was measured:
# MDM2 = biological target: T1, MDM2 (UniProt Q00987 1-491); assay: fluorescence polarisation; competition assay on MDM2 (reported assay, ref. 17); peptides purified by HPLC to >95%; tracer not named; conditions: both partners purified
# T1 construct: MDM2, the protein target of pb13
# streptavidin = biological target: T2, streptavidin (UniProt P22629 25-183); assay: SPR; binding of peptide to streptavidin; conditions: both partners purified
# T2 construct: streptavidin, model target; Source may be told in the ESI
# T2 sequence (P22629 25-183): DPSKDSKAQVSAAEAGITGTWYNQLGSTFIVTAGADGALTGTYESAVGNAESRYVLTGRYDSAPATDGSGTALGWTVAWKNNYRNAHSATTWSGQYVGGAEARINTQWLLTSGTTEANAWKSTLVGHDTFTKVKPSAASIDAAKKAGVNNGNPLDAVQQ
# T1 sequence (Q00987 whole entry): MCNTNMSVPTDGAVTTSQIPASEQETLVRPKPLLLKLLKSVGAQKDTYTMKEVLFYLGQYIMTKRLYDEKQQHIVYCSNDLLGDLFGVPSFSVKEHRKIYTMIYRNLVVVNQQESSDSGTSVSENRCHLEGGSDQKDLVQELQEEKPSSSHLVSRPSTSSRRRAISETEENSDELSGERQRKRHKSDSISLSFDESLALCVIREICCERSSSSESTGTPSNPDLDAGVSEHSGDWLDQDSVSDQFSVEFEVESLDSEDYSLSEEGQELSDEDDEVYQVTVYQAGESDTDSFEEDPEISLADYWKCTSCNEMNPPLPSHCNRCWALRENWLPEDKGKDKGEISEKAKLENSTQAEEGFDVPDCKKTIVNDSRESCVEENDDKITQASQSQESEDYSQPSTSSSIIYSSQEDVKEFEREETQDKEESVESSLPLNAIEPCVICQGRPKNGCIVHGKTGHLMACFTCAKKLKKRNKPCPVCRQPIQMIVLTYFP
Binder,Ki (MDM2) [nM],Kd (streptavidin) [nM]
"GCEKATESESPCPCIFPELCPWIVCC (disulfide 12-25, 14-20, 2-26) [oxidized peptide 15]",89,–
GCGSDEACFCPCSHPENCPMAQHC (disulfide (positions not given here)) [tricyclic peptide 17],–,38
